Results on two substances are retold here after publication PMC6326806.

For assay [1], the target named is Plk1 (UniProt P53350). The experiment in a line: GST-Plk1 pull-down from cell lysate. The note with it: reference: wild type; sites T476.
Assay [2] has as its target Plk1 (UniProt P53350). Description: GFP-trap co-IP of Myc-Plk1. The note with it: reference: GFP-B-Myb wild type; sites T476.

On to B-Myb (from UniProt P10244) T476A, for which, in the assay with Plk1 [1], the “binding against the reference” value is listed as “lost”. On to “B-Myb (from UniProt P10244) GFP-B-Myb T476A”, for which, in the assay with Plk1 [2], the “binding against the reference” value is listed as “lost”.
